Measured values published in the supplement of paper PMC10567573.

B1: TRAF3IP2 (parent)
chain: APWNYHYHCPGSPDHQVPYGHDYP

Variants of: B1
Assay: protein stability index of a GFP-peptide fusion (GPS, HEK-293T) (PSI 1-6); higher = more stable
Settings: c terminus: a fixed tail appended
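Note: lentivirally expressed fusions sorted by FACS into six bins by GFP to DsRed ratio, PSI derived from sequencing read proportions per bin multiplied by bin number.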

Compared with APWNYHYHCPGHPDHQVPYGHDYP, APWNYHYHCPGQPDHQVPYGHDYP is higher in protein stability index: 2.23 for the first, 2.5 for the second.

Compared with YPWNYHYHCPGSPDHQVPYGHDYP, RPWNYHYHCPGSPDHQVPYGHDYP is lower in protein stability index: 2.37 for the first, 2.1 for the second.

First: DPWNYHYHCPGSPDHQVPYGHDYP
Second: EPWNYHYHCPGSPDHQVPYGHDYP
The protein stability index of the first is higher: 3.33 for the first, 2.91 for the second.

Compared with APWNYHYHCPRSPDHQVPYGHDYP, APWNYHYHCPESPDHQVPYGHDYP is higher in protein stability index: 2.04 for the first, 2.06 for the second.

APWNYHYHCPQSPDHQVPYGHDYP and APWNYHYHCPISPDHQVPYGHDYP are the same in protein stability index: 1.63 for the first, 1.63 for the second.

First: APWNYHYHCPHSPDHQVPYGHDYP
Second: APWNYHYHCPPSPDHQVPYGHDYP
The protein stability index of the first is higher: 2.11 for the first, 1.91 for the second.

Going from APWNYHYHCPGSPDHQYPYGHDYP to APWNYHYHCPGSPDHQHPYGHDYP, the protein stability index rises from 1.81 to 2.71.

First: APWNYHYHCPGSPDHQGPYGHDYP
Second: APWNYHYHCPGSPDHQTPYGHDYP
The protein stability index of the first is higher: 2.68 for the first, 2.39 for the second.

Going from APWNYHYHCPGSPDHQNPYGHDYP to APWNYHYHCAGSPDHQVPYGHDYP, the protein stability index falls from 2.23 to 1.69.

First: APWNYHYHCYGSPDHQVPYGHDYP
Second: APWNYHYHCDGSPDHQVPYGHDYP
The protein stability index of the first is lower: 2.13 for the first, 2.31 for the second.

First: APWNYHYHCPGSPDHQVPYIHDYP
Second: APWNYHYHCPGSPDHQVPYEHDYP
The protein stability index of the first is higher: 2.74 for the first, 2.48 for the second.

Going from APWNYHYHCPGSPDHQVPYWHDYP to APWNYHYHCPGSPDHQVPYVHDYP, the protein stability index rises from 1.4 to 2.13.

Compared with APWNYHYHCPGSDDHQVPYGHDYP, APWNYHYHCPGSADHQVPYGHDYP is higher in protein stability index: 2.4 for the first, 3.02 for the second.

Compared with APWNYHYHCPGSWDHQVPYGHDYP, APWNYHYHCPGSRDHQVPYGHDYP is higher in protein stability index: 1.67 for the first, 2.33 for the second.

Compared with APWNYHYHCPGSIDHQVPYGHDYP, APWNYHYHCPGSGDHQVPYGHDYP is higher in protein stability index: 1.87 for the first, 2.05 for the second.

First: APWNYHTHCPGSPDHQVPYGHDYP
Second: APWNYHSHCPGSPDHQVPYGHDYP
The protein stability index of the first is higher: 2.85 for the first, 2.82 for the second.

Compared with APWNYHCHCPGSPDHQVPYGHDYP, APWNYHYHCPGSPDTQVPYGHDYP is lower in protein stability index: 2.49 for the first, 1.91 for the second.

Compared with APWNYHYHCPGSPDMQVPYGHDYP, APWNYHYHCPGSPDHQVLYGHDYP is higher in protein stability index: 2.02 for the first, 2.21 for the second.

First: APWNYHYHCPGSPDHQVTYGHDYP
Second: APWNYHYHCPGSPDHQVVYGHDYP
The protein stability index of the first is higher: 2.37 for the first, 2.05 for the second.

First: APWNYHYHCPGSPDHQVWYGHDYP
Second: APWNYHYHCPGSPDHQVDYGHDYP
The protein stability index of the first is lower: 1.71 for the first, 2.44 for the second.

First: APWNYHYHCPGSPDHQVPYGCDYP
Second: APWNYHYHEPGSPDHQVPYGHDYP
The protein stability index of the first is lower: 1.6 for the first, 2.55 for the second.

Going from APWNYHYHVPGSPDHQVPYGHDYP to APWNYFYHCPGSPDHQVPYGHDYP, the protein stability index falls from 2.7 to 2.14.

First: APWNYIYHCPGSPDHQVPYGHDYP
Second: APWNYWYHCPGSPDHQVPYGHDYP
The protein stability index of the first is lower: 2.42 for the first, 2.59 for the second.

Going from APWNYEYHCPGSPDHQVPYGHDYP to APINYHYHCPGSPDHQVPYGHDYP, the protein stability index falls from 4.43 to 3.39.

Going from APCNYHYHCPGSPDHQVPYGHDYP to APYNYHYHCPGSPDHQVPYGHDYP, the protein stability index falls from 4.01 to 3.04.

Compared with APHNYHYHCPGSPDHQVPYGHDYP, APSNYHYHCPGSPDHQVPYGHDYP is higher in protein stability index: 3.51 for the first, 3.95 for the second.

First: APTNYHYHCPGSPDHQVPYGHDYP
Second: APWNGHYHCPGSPDHQVPYGHDYP
The protein stability index of the first is higher: 4.03 for the first, 3.96 for the second.

Compared with APWNDHYHCPGSPDHQVPYGHDYP, APWNLHYHCPGSPDHQVPYGHDYP is lower in protein stability index: 3.93 for the first, 3.3 for the second.

First: APWNYHYHCPGSPDHQVPTGHDYP
Second: APWNYHYHCPGSPDHQVPNGHDYP
The protein stability index of the first is higher: 2.85 for the first, 2.48 for the second.

Going from APWNYHYHCPGSPDHQVPDGHDYP to APWNYHYHCPGSPDHQVPRGHDYP, the protein stability index falls from 2.75 to 1.99.

First: APWNYHYHCPGSPDHTVPYGHDYP
Second: APWNYHYHCPGSPDHRVPYGHDYP
The protein stability index of the first is higher: 2.31 for the first, 2.02 for the second.

Going from APWNYHYHCPGSPDHNVPYGHDYP to APWNYHYHCPGSPDHCVPYGHDYP, the protein stability index falls from 2.54 to 2.07.

Compared with APWNYHYHCPGSPDHMVPYGHDYP, APWNYHYHCPGSPDHWVPYGHDYP is lower in protein stability index: 1.94 for the first, 1.68 for the second.

Compared with APWNYHYHCPGSPDHYVPYGHDYP, APWNYHYTCPGSPDHQVPYGHDYP is higher in protein stability index: 2.09 for the first, 2.41 for the second.

Compared with APWNYHYVCPGSPDHQVPYGHDYP, APWFYHYHCPGSPDHQVPYGHDYP is higher in protein stability index: 1.95 for the first, 2.63 for the second.

First: APWSYHYHCPGSPDHQVPYGHDYP
Second: APWDYHYHCPGSPDHQVPYGHDYP
The protein stability index of the first is lower: 3.36 for the first, 3.54 for the second.

First: APWCYHYHCPGSPDHQVPYGHDYP
Second: APWLYHYHCPGSPDHQVPYGHDYP
The protein stability index of the first is lower: 2.17 for the first, 2.26 for the second.

First: ASWNYHYHCPGSPDHQVPYGHDYP
Second: AFWNYHYHCPGSPDHQVPYGHDYP
The protein stability index of the first is higher: 2.1 for the first, 1.95 for the second.

First: ADWNYHYHCPGSPDHQVPYGHDYP
Second: APWNYHYHCPGSPCHQVPYGHDYP
The protein stability index of the first is higher: 3.38 for the first, 2.49 for the second.

Going from APWNYHYHCPGSPTHQVPYGHDYP to APWNYHYHCPGSPDHQVPYGHCYP, the protein stability index falls from 1.78 to 1.41.

First: APWNYHYHCPGSPDHQVPYGHPYP
Second: APWNYHYHCPGSPDHQVPYGHEYP
The protein stability index of the first is higher: 2.68 for the first, 2.36 for the second.

Going from APWNYHYHCPGSPDHQVPYGHQYP to APWNYHYHCPGSPDHQVPYGHLYP, the protein stability index falls from 2.16 to 1.9.

Going from APWNYHYHCPGSPDHQVPYGHDMP to APWNYHYHCPGSPDHQVPYGHDVP, the protein stability index falls from 2.25 to 1.97.

Going from APWNYHYHCPGSPDHQVPYGHDTP to APWNYHYHCPGSPDHQVPYGHDGP, the protein stability index rises from 2.89 to 2.92.

Compared with APWNYHYHCPGSPDHQVPYGHDPP, APWNYHYHCPGSPDHQVPYGHDYL is lower in protein stability index: 3.06 for the first, 1.96 for the second.

Going from APWNYHYHCPGSPDHQVPYGHDYW to APWNYHYHCPGSPDHQVPYGHDYM, the protein stability index falls from 1.94 to 1.66.

Compared with APWNYHYHCPGSPDHQVPYGHDYG, APWNYHYHCPGSPDHQVPYGHDYK is higher in protein stability index: 1.62 for the first, 2.8 for the second.
